Changes are numbered by the printed parent chain.
T1: CD123 Protein, His Tag, Acro Biosciences Cat. No. ILA-H52H6 (Homo sapiens (Human), UniProt P26951 19-305)
T1 construct: Bought protein; not shown: His tag
T1 sequence: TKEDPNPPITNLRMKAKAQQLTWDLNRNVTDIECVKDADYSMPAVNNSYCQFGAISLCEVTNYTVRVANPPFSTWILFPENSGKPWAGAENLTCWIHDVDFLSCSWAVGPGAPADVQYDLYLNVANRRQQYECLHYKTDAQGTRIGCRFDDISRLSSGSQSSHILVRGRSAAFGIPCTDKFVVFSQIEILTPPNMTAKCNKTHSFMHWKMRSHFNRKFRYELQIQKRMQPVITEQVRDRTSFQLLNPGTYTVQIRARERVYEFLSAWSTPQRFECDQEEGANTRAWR

B1: MYT1253 (antibody, V domains shown)
VH: QVQLVQSGAEVKKPGASVKVSCKASGHIFTSSIMHWVRQAPGQGLEWIGYIKPYNDGTKYNEKFKGRATLTSDRSTSTAYMELSSLRSEDTAVYYCAREGGNDYYDTMDYWGQGTLVTVSS
VL: DIQMTQSPSSLSASVGDRVTITCRASQDINSYLSWFQQKPGKAPKTLIYRVNRLVDGVPSRFSGSGSGNDYTLTISSLQPEDFATYYCLQYDAFPYTFGQGTKVEIK
notes: IgG
B2: MYT1252 (antibody, V domains shown)
VH: B1 VH with G26H, H27Y
VL: B1 VL
notes: IgG
B3: MYT1254 (antibody, V domains shown)
VH: B1 VH with H27Y, I28H
VL: B1 VL
notes: IgG
B4: MYT1255 (antibody, V domains shown)
VH: B1 VH with H27Y, F29H
VL: B1 VL
notes: IgG
B5: MYT1256 (antibody, V domains shown)
VH: B1 VH with H27Y, T30H
VL: B1 VL
notes: IgG
B6: MYT1257 (antibody, V domains shown)
VH: B1 VH with H27Y, S31H
VL: B1 VL
notes: IgG
B7: MYT1258 (antibody, V domains shown)
VH: B1 VH with H27Y, S32H
VL: B1 VL
notes: IgG
B8: MYT1259 (antibody, V domains shown)
VH: B1 VH with H27Y, I33H
VL: B1 VL
notes: IgG
B9: MYT1260 (antibody, V domains shown)
VH: B1 VH with H27Y, M34H
VL: B1 VL
notes: IgG
B10: MYT1261 (antibody, V domains shown)
VH: B1 VH with H27Y, H35A
VL: B1 VL
notes: IgG
B11: MYT1262 (antibody, V domains shown)
VH: B1 VH with H27Y, Y50H
VL: B1 VL
notes: IgG
B12: MYT1263 (antibody, V domains shown)
VH: B1 VH with H27Y, I51H
VL: B1 VL
notes: IgG
B13: MYT1265 (antibody, V domains shown)
VH: B1 VH with H27Y, P53H
VL: B1 VL
notes: IgG
B14: MYT1266 (antibody, V domains shown)
VH: B1 VH with H27Y, Y54H
VL: B1 VL
notes: IgG
B15: MYT1267 (antibody, V domains shown)
VH: B1 VH with H27Y, N55H
VL: B1 VL
notes: IgG
B16: MYT1268 (antibody, V domains shown)
VH: B1 VH with H27Y, D56H
VL: B1 VL
notes: IgG
B17: MYT1269 (antibody, V domains shown)
VH: B1 VH with H27Y, G57H
VL: B1 VL
notes: IgG
B18: MYT1270 (antibody, V domains shown)
VH: B1 VH with H27Y, T58H
VL: B1 VL
notes: IgG
B19: MYT1271 (antibody, V domains shown)
VH: B1 VH with H27Y, K59H
VL: B1 VL
notes: IgG
B20: MYT1272 (antibody, V domains shown)
VH: B1 VH with H27Y, Y60H
VL: B1 VL
notes: IgG
B21: MYT1273 (antibody, V domains shown)
VH: B1 VH with H27Y, N61H
VL: B1 VL
notes: IgG
B22: MYT1274 (antibody, V domains shown)
VH: B1 VH with H27Y, E62H
VL: B1 VL
notes: IgG
B23: MYT1275 (antibody, V domains shown)
VH: B1 VH with H27Y, K63H
VL: B1 VL
notes: IgG
B24: MYT1276 (antibody, V domains shown)
VH: B1 VH with H27Y, F64H
VL: B1 VL
notes: IgG
B25: MYT1277 (antibody, V domains shown)
VH: B1 VH with H27Y, K65H
VL: B1 VL
notes: IgG
B26: MYT1278 (antibody, V domains shown)
VH: B1 VH with H27Y, G66H
VL: B1 VL
notes: IgG
B27: MYT1279 (antibody, V domains shown)
VH: B1 VH with H27Y, A97H
VL: B1 VL
notes: IgG
B28: MYT1280 (antibody, V domains shown)
VH: B1 VH with H27Y, R98H
VL: B1 VL
notes: IgG
B29: MYT1282 (antibody, V domains shown)
VH: B1 VH with H27Y, G100H
VL: B1 VL
notes: IgG
B30: MYT1283 (antibody, V domains shown)
VH: B1 VH with H27Y, G101H
VL: B1 VL
notes: IgG
B31: MYT1284 (antibody, V domains shown)
VH: B1 VH with H27Y, N102H
VL: B1 VL
notes: IgG
B32: MYT1285 (antibody, V domains shown)
VH: B1 VH with H27Y, D103H
VL: B1 VL
notes: IgG
B33: MYT1286 (antibody, V domains shown)
VH: B1 VH with H27Y, Y104H
VL: B1 VL
notes: IgG

Biological target: T1, CD123 Protein, His Tag, Acro …
Assay: BLI, IgG on anti-human Fc sensor, 50 nM CD123, pH 7.4 and pH 5.4
Excerpt: We selected IMGN632 (Heavy chain SEQ ID NO: 1, Light chain SEQ ID NO: 2) as a CD123-binding monoclonal antibody for pH engineering via histidine scanning. Briefly, CDRs in the heavy chain were identified using the methods described by Kabat et al (Kabat et al. (1992) Sequences of Proteins of Immunological Interest, DIANE publishing) and IMGT (Lefranc M P (1999) “The IMGT unique numbering for Immunoglobulins, T cell receptors and Ig-like domains” The Immunologist 7, 132-136), and for each CDR, residues falling under either or both Kabat and IMGT CDR definitions were called as CDR residues. To generate pH-dependent sequence variants, individual amino acid residues within the heavy chain CDRs were systematically substituted with a histidine, one at a time (MYT1252-MYT1292). In cases where the starting CDR residue was a histidine, it was mutated to an alanine. Antibody variants with only one histidine or alanine mutation in a heavy chain CDR were generated by co-transfection of Expi293 cells with a) one heavy chain sequence variant, and b) the corresponding starting ABPC light chain using methods known to the art. After allowing for four days of protein expression, cell culture supernatants were collected, quantified by SDS-PAGE analysis (FIG. 1), and the pH dependence of the variant was evaluated using biolayer interferometry (BLI) on an Octet RED 384 instrument. For constructs MYT1252, MYT1254-MYT1287, and MYT1289-1292, 104, of cell culture supernatant was diluted into 1904, of 1× PBST pH 7.4. For MYT1253 and MYT1288 254, and 504, of cell culture supernatant was diluted into 1754, and 1504, respectively. […] The resulting diluted supernatants were then captured on an anti-human Fc sensor (Forte Bio). A baseline was established using 1× PBST (50 mM Potassium Phosphate Buffer+150 mM NaCl+0.05% Tween 20) pH 7.4, and the sensor was associated with 50 nM of CD123 (CD123 Protein, His Tag, Acro Biosciences Cat. No. ILA-H52H6, Lot No. 1741d-89CF1-KB) in 1×PBST pH 7.4 for 120 sec to generate an association curve. In the dissociation phase, the antibody-antigen complex on the sensor was exposed to 1× PBST pH 7.4 for 300-600 sec. Baseline, association, and dissociation were repeated using 1×PBST pH 5.4 throughout in a separate condition.

Row | Binder | binding result
1 | B1 | binds
2 | B2 | binds
3 | B3 | binds
4 | B4 | binds
5 | B5 | binds
6 | B6 | binds
7 | B7 | binds
8 | B8 | binds
9 | B9 | binds
10 | B10 | binds
11 | B11 | binds
12 | B12 | binds
13 | B13 | binds
14 | B14 | binds
15 | B15 | binds
16 | B16 | binds
17 | B17 | binds

Row | Binder | binding result
18 | B18 | binds
19 | B19 | binds
20 | B20 | binds
21 | B21 | binds
22 | B22 | binds
23 | B23 | binds
24 | B24 | binds
25 | B25 | binds
26 | B26 | binds
27 | B27 | binds
28 | B28 | binds
29 | B29 | binds
30 | B30 | binds
31 | B31 | binds
32 | B32 | binds
33 | B33 | binds
